Assay results reported in US20230111363A1.

Tests used:
[1] = target: human FcγRI (CD64) extracellular domain (human) (UniProt P12314); assay: SPR (Biacore T100), antibody captured on Protein A, FcγR ECD as analyte, 25 C
[2] = target: human FcγRIIA_131H (CD32a) extracellular domain (human) (UniProt P12318); assay: SPR (Biacore T100), antibody captured on Protein A, FcγR ECD as analyte, steady state, 25 C
[3] = target: human FcγRIIA_131R (CD32a) extracellular domain (human) (UniProt P12318); assay: as above
Chain of human FcγRIIA_131R (CD32a) extracellular domain (human) (P12318 34-217 H167R): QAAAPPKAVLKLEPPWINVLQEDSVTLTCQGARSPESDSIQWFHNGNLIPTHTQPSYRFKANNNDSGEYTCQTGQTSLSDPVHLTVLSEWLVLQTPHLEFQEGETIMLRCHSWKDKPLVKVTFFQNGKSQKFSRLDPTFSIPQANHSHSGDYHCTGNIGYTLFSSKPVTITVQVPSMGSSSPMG

[4] = target: human FcγRIIIA_F158 (CD16a) extracellular domain (human) (UniProt P08637); assay: as above
Chain of human FcγRIIIA_F158 (CD16a) extracellular domain (human) (P08637 17-208): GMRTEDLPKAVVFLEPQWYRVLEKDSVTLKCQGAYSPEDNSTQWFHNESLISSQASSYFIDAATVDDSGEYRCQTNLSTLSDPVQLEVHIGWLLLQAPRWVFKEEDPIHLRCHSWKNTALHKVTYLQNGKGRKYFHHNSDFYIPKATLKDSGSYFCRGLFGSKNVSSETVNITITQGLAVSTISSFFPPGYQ

[5] = target: human FcγRIIb (CD32b) extracellular domain (human) (UniProt P31994); assay: as above
Chain of human FcγRIIb (CD32b) extracellular domain (human) (P31994 43-217): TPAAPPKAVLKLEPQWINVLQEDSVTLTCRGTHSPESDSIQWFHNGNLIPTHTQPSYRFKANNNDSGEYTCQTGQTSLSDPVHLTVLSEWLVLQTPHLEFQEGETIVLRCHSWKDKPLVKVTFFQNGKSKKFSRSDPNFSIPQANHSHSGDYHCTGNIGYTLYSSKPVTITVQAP

Chain of human FcγRI (CD64) extracellular domain (human) (P12314 16-292): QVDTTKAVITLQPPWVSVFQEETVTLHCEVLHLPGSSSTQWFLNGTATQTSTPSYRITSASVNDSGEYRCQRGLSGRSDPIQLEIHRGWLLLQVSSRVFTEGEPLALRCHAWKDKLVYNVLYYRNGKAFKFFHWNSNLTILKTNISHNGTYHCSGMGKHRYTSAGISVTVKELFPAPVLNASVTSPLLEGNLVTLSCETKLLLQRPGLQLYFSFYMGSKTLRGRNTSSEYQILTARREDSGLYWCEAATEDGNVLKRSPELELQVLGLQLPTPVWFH
Chain of human FcγRIIA_131H (CD32a) extracellular domain (human) (P12318 34-217): as the sequence (P12318 34-217 H167R) above, with R134H counted along it

Human WT IgG1 Fc (antibody)
Kd [1]: 0.0426 nM | Kd [2]: 500 nM | Kd [3]: 500 nM | Kd [4]: 900 nM | Kd [5]: 1900 nM
